Drawing on paper PMC12680543, this text covers half-life of KLMT-1::mNG (fluorescence time lapse of embryos) in kss-1(−) against kss-1(+) and stoichiometry N for two substances.

Test [1] addresses KLMT-1 (C. tropicalis).
Test [2] addresses KSS-1::Strep (C. tropicalis). As to the kind of experiment: SEC-MALS; KSS-1::Strep–SKR-1 complex co-expressed in Sf9 and co-purified (StrepTrapXT ATP/Mg wash fraction, ResourceQ, Superdex 200 Increase 10/300 GL); 20 mM Tris pH 7.5, 150 mM NaCl; right-angle static light scattering. For orientation: SEC sorts molecules by how far they enter the pores of the column.

By stoichiometry N is commonly meant the number of molecules, sites or subunits per partner or assembly.

As to 3xFLAG::KSS-1 (natural protein), the half-life of KLMT-1::mNG (fluorescence time lapse of embryos) in kss-1(−) against kss-1(+) in test [1] came to 2.9 fold.

Turning to SKR-1 (natural protein), the stoichiometry N in test [2] stood at 1.
